In this experiment the target is BG505 SOSIP.664 gp140 trimer (HIV-1 (strain BG505)) (UniProt Q2N0S6). The experiment is described as follows: negative-stain EM.

Our source for the stoichiometry N (Fabs per trimer) values is PMC4826291.

Turning to CH235 Fab, the stoichiometry N (Fabs per trimer) came to 1.
